Experimental data published in the DeepSol protein solubility set.

Experiment: soluble on expression in E. coli; label from the status in PepcDB or PDB records

Sequence	soluble on expression in E. coli
MPAPDLGFALSLPPKKAIEWLESKKVTAESYRNLTASEIAKVYTIARMTDLDMLNDIKTSMVESAKSGQSFDDWRKGILNLLSNKGWLHPNGHNGKDIIDPATGEVFGSPRRLETIYRTNMQTAYNAGQYQGYMANIDARPYWMYDAVGDSRTRPAHSAIDGLVYRYDDPFWATFYPPNGYNCRCSVIALSERDVERQGRIVGQSTADNLVETHKIYNKKGDTYLTLAYKAPDGSLYTTDRGFDYNAGRMNYRPDLDKYDRALAHQFAKAEMGGADFKTSFKQLEKEFYEVKQRLDIDGKPDKEQKIKIRNALSRQLKFAAGVLSKETQELAGMTRATVWLSDDTLVKQVDSREGQNFDDSYYAFLPDMLQNPEHVIRDNRELIFTARYKGSALWAVLKYIKEVDEIYLQSYRISNDKEIAKFMAKKKVLK	not soluble
MPAPQVMPAKVAPLPTSFRGTSVDGSFSVDASGNLLITRDIRNLFDYFLSAVGEEPLQQSLDRLRAYIAAELQEPARGQALALMQQYIDYKKELVLLERDLPRLADLDALRQREAAVKALRARIFSNEAHVAFFADEETYNQFTLERLAIRQDGKLSAEEKAAAIDRLRASLPEDQQESVLPQLQSELQQQTAALQAAGAGPEAIRQMRQQLVGAEATTRLEQLDRQRSAWKGRLDDYFAEKSRIEGNTGLSEADRRAAVERLAEERFSEQERLRLGALEQMRQAEQR	not soluble
MPATPVPPVTMPPVPPVGFPPVTAPPGLHPPPPVPPVPVPTLPVTSEHKTAHDACIKRLEQLEIPPDPKIYPSPTEPGTFGSVTEVLTNVFGVEVHKTSNFYQYSVHITAELSSKKEVTFTKKGKEDFIVHDRHEKCSAILFHALNRFEDFFKSSENCIIYDGQSILFTSMNLFEGIPTGKIKTKVFQINGADTNLKDLMVLPCIKLEVFPTKNPVVNFSLEDIGRRTSDSNIESVNMAYKQILDLAMSQYAIRETSKCVVFEHGKMFFINPLQEGYAPCDIVEVGDGKQMKPGLKKTLQFIEGPYGRNQNNPSIVIDGMKVAFHMEQLVFQKLSSITSNLANGITGSERERCAAVIKGLDCHSNYRGRTRHHKIESIHHEGAATARFELEGGGTCTVATYFKDKYKIQLRYPNANLIVCKERGALNFYPMELITISPNQRVRITQQTSSQSQRTTKESAVLPDIRQRLIMTGKIAAKITAENEVLGKMGVTVCDEPLVVKGRNLPAIRLASFETGEHLINPRDCKWRPQRYNRSAVAPKVWALYGVGSPGSQMNRDVMRRFCDEFMNMSRSKGILFPPPGDVNLLTPDAIENRLREAANAGCTFVLCITEDNITCLHQKYKFIEHHTQMIVQDMKLSKALSVVNASKKLTLENVINKTNVKLGGSNYVYLDTKNFLQEHLIIGVGISSPPPGTKYIMESRGILNPTIVGFAYNGNGKQEFSGDFVLNAAGQETIAPIEDIVSYSIKGYKKFHDGKAPKRITIYRSGSSEGNHGPIISYEVPLARVAMRNFSPDTQLLYIVVSKEHTYRFFKKESGGSSSGGSNSAGASNSGTLTSAPPKPWELNIGPGLTVDYGVTNPACKQFFLNSHMTLQGSAKTPLYTVLADDRNIGMSALEEFTFNLCHLHQIVGLPTSIPTPLYVANEYAKRGRNLWNEAINANEIPEVTGPESARLKKMTDGISYMGSGDMIDRRVNA	not soluble
MPAVESNMFPLGKQAPPFALTNVIDGNVVRLEDVKSDVATVIMFICNHCPFVKHVQHELVRLANDYMPKGVSFVAINSNDAEQYPEDSPENMKKVAKELGYPFPYLYDETQEVAKAYDAACTPDFYIFDRELKCVYRGQLDDSRPNNGIPVTGESIRAALDALLEGRPVPEKQKPSIGCSIKWKPSA	not soluble
MPDAQILSTHEHGVVVALGDIRTADSITTVVAGVGSANPTQWLNYVERAQHIQQATGGAAVAWLGYNAPANVAAAAAQTPAQQGASQLQKFQKELRTLNPKARLMVFGHSYGSVVAGHAVAHGLDADTFIVAGSPGVPPNPQLHSPNPRLISVLGSHDIIGLTGTNTVAAHGIDPSALSAQDAGFERWGVAGGHESYFTDKRLEHHHHHH	not soluble
MPDHLQPTLFQDAGKTQASDTFQELLASIAARPKYLPDWPESHRALPNEILRSALFNCRNRNLPRMFLKEVEIAVIGDGQVIYRGEELRQDDELVWMHLMHLIKKSPLGECVEFTPYSFIKALGWPIKGQNYDRLRNCLSRMQATALRIQSKRLHSFVSISLIQKFLSRNERNESLTRWQVWVGKEMQLLFDEEFLTRVMWETRRSLPDGIASKLFGYWASHRKPYPVKVETLLKLCGSGMQTKHFKIELKRALDLLKQSGFLEAWELKDELVVVVRRH	not soluble
MPDISIILLGNYAPDQVIHARLLFMRMEQVPGGHHLQILQFRFTIPFRQADFCSLDQSDVMCSETHCYYLMNLKVGAFFETAQNILMIRWLFS	not soluble
MPEEYIMSSKACIYVLGGAANTAALFDFDGVYILDGGFAEKNPGFVAHVRDVSAVLLAAPTLGNLGTTSALLEQGKPLPVFTNTKPFKTAKPGSSGEIAKAIQEANSKILSVAPPLFNPKYPANIIYQSAAKGVLSLYILAGDVKDAEVITKALAGGNEAEVEKAAAEHGTIGVLLWRPAMTDQSVVRVLISGTSSLSRIQQSLDKAAKSLPFLNVPTVKSKDALSDIPAPAVPRPVAGKPSARPATTTGTATRPTRPAVPAASAPRALTSRAPAGPSRPTTTRNAAPAPRTAVPSRATVLTKTAPASKAPTRAPVPARSAPAPPRGAPAKPAANTAKAEPIAQKKTVGKVQGTAPSKPAPAAPASAATSPAPAPEAPRRDPNNVTIVLDDSLSPEDFNQGSAPMDIVVIPPTPEPPRHEVAQATHPEESIIDAEDLAKAPLEVDDVANLADVEDEIPPPVDAFKKPEPHPEPNVSGGSEEDKIPEPVDAFKKPDPVELDDFDPLKPSHPEPSAPVVPSDHIIIATPDPELPDIVAAVPFVSPSPKGPNDGLVKLDDELEKIAPGFEEPLIPQAPRDDGTLAECSEEVSKLVEISMDTDNSAEVAADLAKAVGEVTQLSADLQNLGLDEKTDEYVRKLSNQMIEDATLPFTSALASSIVTSNGSETNGHGEQAHAAQNGGIDHQKEIPKHDLMQSRSSVIENGAAVQYEKTDPALDDVLNACAQESEKIDASHPDNLHMPAAPGSAAPAKPVKFARPYYFDVVTVPRNEKLETSVAADGLQEFISKVRSRNVILASKDISGEQLQAILCGKQTWCDSAHPCNVIPTHSSPMLLDFRQKNEEQFAANNLQFSIPVEKQRTTVSSDAGAIEYELARVDLL	soluble
MPESIPQFYKRIQSCDLQSDTTYSKEKPYFNIFSRQCNFGTVQFSYREFYKVTLIIGVGKLYYADKWILVNRPALLFSNPLVPYAWESISEEQKGVFCIFNERFVQSEEKNGSLANTPLFKVTGDKVFFLDDTQVAKVLDIYTQMQEENQSDYVNKFDVLRCYLHLLIHTALKMQDSNRYESHLNASQRITELFIELLDRQFPIDYPHAVLNLRTPADYANRLSVHVNHLNKVIKDTTGKTTSEMIAERIIKECTQYLLHSNLSISEIAYSLGFETVSYFSKFYRKHTGKSPSEVRERTII	not soluble
MPESYWEKVSGKNIPSSLDLYPIIHNYLQEDDEILDIGCGSGKISLELASLGYSVTGIDINSEAIRLAETAARSPGLNQKTGGKAEFKVENASSLSFHDSSFDFAVMQAFLTSVPDPKERSRIIKEVFRVLKPGAYLYLVEFGQNWHLKLYRKRYLHDFPITKEEGSFLARDPETGETEFIAHHFTEKELVFLLTDCRFEIDYFRVKELETRTGNKILGFVIIAQKLLEHHHHHH	soluble
MPEVSVEKPLSVIPPEFCANANCPFSPKEISVLRIKVRGGVSKEEILQVNSASRPALPRQHSASTVSPLQSSSDELNNDSGIDNRTVGSPSTSEFSPRSTDLFVSPKSIIDEEPPHHPPPPPPVEEKLDQVLIPLKLSRGQDYAPIYRSLEQDTYYDQSPSESEKDEDLGLTNTKRYTENFRSVEKNQYMPVMSARVEATFKQPPPREGVKPFVSRAAQDITHNGESKVENIDLTIELNREQKATVTATKYPRTDFIMEDYHRPQTQILAPAPKKPNSTTRIYHAVDIPFDESPASYYPKQNNGYQRQRRYSASSASKQDGMFTLNVIMGSQPVHKGMGFSTVKRDERVIVESVIVGSPADKAGLLVGDTILSINGEEMSDKYQSGVTRILHEAARVGEADVLILRAPVPAPMLSKQMSTSSSNSSNYDKARSVFTENKSFDSYAEFKRKHTRTSRDSNSSNATRSSRDFNSLPRGTTAQSSLDRKRDTSLSSYRTAKDNFNSSSNRSSGRSEYGDYRVSNYQEKNAPGRLTDFVPEVDRRLSRREQSEEIYSRSQRDEEPRTIRNYHLSNENIARTNLNYDGRRDSEEESTTTTLKRTTLPRSGTAQWKNEYSDGEEVTEKLPVTSRDSSPLRSALKKSSHNYYHQSSDPVAPPPRRYYSTESLQLPKTSSYQRYSEEEDEEIEETYSSMRRHRQEIPRHVDEFHTVGSYGVMPQRSRSQQPARLPRYDSVPDDVDEVSGVSHRFYDRSGNHVRAPRERIHDIQIQRDYGDRAPSRDLDFVRNTYKWEEQLEDTKVTTTTKIYEKESRDWRDVINQQRQAAPGNSADRRGIAATSSSLSNLPSYINRRMEKEREREIEYRRDREYSMPPADPPVITEKYERDEYSRVEERTYPVPVARNKMRREETQMQSSLQQMHSQSSQKDDSVVAVSGKHRCAHCNEELGRGAAMIVESLNLFYHLACFKCYVCKTSLGSGATGADVRVRDGRLHCQTCYSNDRVQLSKV	not soluble
MPFAHKVVMRTALYWEPLEDGKVKCKLCPLNCIINPEKRGSCKVRINIDGKLYTLNYGKVSSIALDPIEKKPLFHFWPGSCAFSIGTVGCNMHCKHCQNWEISQADESFPYLQDATPESIVRLARHYECESIAYTYNEPTIWYEFVLDTAKLAKKEGLNNILVTNGYINEEPFRELAKYIDAMNIDIKAFNDKFYMKISSVPSGEPSRRTAVIAKKEFGIHVELTYLIIPTLNDNEEEIRRFARWVVEELGDDTPVHFSRFFPHYKLLNLPPTPIQTLEKAYKIAKEEGLKFVYLGNVPGHEGENTYCPRCGKLLIERWGFEILRYEIKDGKCKYCGEQIPIVGEYQRKTYRGMWW	not soluble
MPFKPLVTAGIEGLLNTFLYRSPALKSARTRLQGKVLCVKLKGFSMPLVLVFSERQVDVLGAWEGEADCTVITQASVLPKLRDRQQLATLIRSGELEVQGDIQVVQNFVALADLAEFDPAELLAPYTGDIAAESIGKVVRGGAKFLRHGFQRQQRYAAEAITEEWRMAPGPLEVAWFAEETAAVERAVDSLTTRLEKLEAK	not soluble
MPGHRITLTGEKQTLLITLYAKALDSRLDDSILHDRFAEEAVRQIDFDFSRVALGKGNERALAMRSHYFDQACREFLGRHPEGQVLNLGCGLDSRIYRVDPPAELPWFDLDYPEVMDLRERLYPPRAGAYRALRHSVDDDGWLQGVPRERPALVLAEGLMPYLRESQVRRLVERLVDHLGSGELLFDGYGRLGIMLLRLYPPLRETGAQVHWSIDDPRELERWHPALRFIEEVTDYDPQDVAKLPQSSRLMLPIYNGFAFLRRMGRLIRYRWPRV	not soluble
MPHFYEYLEFNRDEDREHQLDVYVGVQLEADTIAKITALETASEWLIMAEPYCPDCVEVVAYFQRISQLNPAINVKYVARKDNTQRHYFDSDRQQQAVIAVEKIPAIFNISSAETELVLAEFPAFLKAEMAEHPMQFDALKADFRMGKFGKRLEAELVEILTR	not soluble
MPIADTVTLNSGYEMPVIGYGTWQLPKNLAAERVRDALEAGYRHIDSALSFKNQEEVAAGIKDWCKIRKVRREELFLSSKIWNTYHSRNRCMQQIDEMLEIFETTYMDLIVIHWPFGWAEDEPPGERGLWPRGANGKMRYSDVDYLETWKALEDAHRSGKIRSIGLANFNIGQVEQVWTKGLIKPAVLQVEMNPFLDQEEIRQFCREKGIILTAFMLTGNPGSALYRKHEDPNLLYNETLQSIAKGHGKSVVQVLVRWAIDLRTTALVKSSESKRIRQNINIFKFRLTSQEIARIKALNIDFRILNPLLGNYDHPYFPWPHVQEEQLPQKVEEPDPENL	not soluble
